In patent publication US20220025021A1 (BETH ISRAEL DEACONESS MEDICAL CENTER, published 2022):
Positions count from the first letter of the chain named.

B1: MS-97 (antibody)
VH: not shown
VL: DFVLTQSPLSLSVTPGEPASISCKSSHSLIHGDRNNYLAWYVQKPGRSPQLLIYLASSRASGVPDRFSGSGSDKDFTLKISRVETEDVGTYYCMQGRESPWTFGQGTKVDIKRTVAAPSVFIFPPSDEQLKSGTASVVCLLNNFYPREAKVQWKVDNALQSGNSQESVTEQDSKDSTYSLSSTLTLSKADYEKHKVYACEVTHQGLSSPVTKSFNRGEC
B2: MS-99 (antibody)
VH: not shown
VL: B1 VL with P18S, T85A
B3: MS-106 (antibody)
VH: not shown
VL: B1 VL with F2I, L9H, D73G
B4: MS-107 (antibody)
VH: not shown
VL: B1 VL with F2I, L9H, T85A
B5: MS-108 (antibody)
VH: not shown
VL: B1 VL with F2I, L9H, P18S, D73G, T85A
B6: MS-111 (antibody)
VH: not shown
VL: B1 VL with P18S, D73G, T85A
B7: MS-109 (antibody)
VH: not shown
VL: B1 VL with D73G
B8: MS-110 (antibody)
VH: not shown
VL: B1 VL with T85A

target: HIV-1 pseudovirus AC10.0.29 (envelope glycoprotein) (HIV-1); experiment: cell-based or functional assay

Binder | neutralization IC50 | neutralization IC80
B1 | 0.057 mg/L | 0.282 mg/L
B2 | 0.072 mg/L | 0.328 mg/L

target: HIV-1 pseudovirus 6952.v1.c20 (envelope glycoprotein) (HIV-1); experiment: cell-based or functional assay

Binder | neutralization IC50 | neutralization IC80
B1 | 0.147 mg/L | 0.917 mg/L
B2 | 0.217 mg/L | 1.99 mg/L

target: HIV-1 pseudovirus SC05.8C11.2344 (envelope glycoprotein) (HIV-1); experiment: cell-based or functional assay

Binder | neutralization IC50 | neutralization IC80
B1 | 1.02 mg/L | 2.63 mg/L
B2 | 0.759 mg/L | 2.49 mg/L

target: HIV-1 pseudovirus 263-8 (envelope glycoprotein) (HIV-1); experiment: cell-based or functional assay

Binder | neutralization IC50 | neutralization IC80
B1 | 0.015 mg/L | 0.052 mg/L
B2 | 0.011 mg/L | 0.041 mg/L

target: HIV-1 pseudovirus Ce1176_A3 (envelope glycoprotein) (HIV-1); experiment: cell-based or functional assay

Binder | neutralization IC50 | neutralization IC80
B1 | 0.125 mg/L | 1.59 mg/L
B2 | 0.074 mg/L | 1.25 mg/L

target: HIV-1 pseudovirus X1193_c1 (envelope glycoprotein) (HIV-1); experiment: cell-based or functional assay

Binder | neutralization IC50 | neutralization IC80
B1 | 0.101 mg/L | 0.588 mg/L
B2 | 0.13 mg/L | 0.57 mg/L

target: HIV-1 envelope glycoprotein of pseudovirus RHPA4259.7 (HIV-1); experiment: cell-based or functional assay

Binder | IC50 (neutralization in TZM.bl cells) | IC80 (neutralization in TZM.bl cells)
B3 | 0.143 mg/L | 0.72 mg/L
B4 | 0.219 mg/L | 0.949 mg/L
B5 | 0.178 mg/L | 1.1 mg/L
B6 | 0.178 mg/L | 0.802 mg/L
B7 | 0.182 mg/L | 0.794 mg/L
B8 | 0.18 mg/L | 0.817 mg/L

target: HIV-1 envelope glycoprotein of pseudovirus 0260.v5.c36 (HIV-1); experiment: cell-based or functional assay

Binder | IC50 (neutralization in TZM.bl cells) | IC80 (neutralization in TZM.bl cells)
B3 | 0.018 mg/L | 0.066 mg/L
B4 | 0.034 mg/L | 0.109 mg/L
B5 | 0.028 mg/L | 0.088 mg/L
B6 | 0.024 mg/L | 0.066 mg/L
B7 | 0.027 mg/L | 0.089 mg/L
B8 | 0.026 mg/L | 0.088 mg/L

target: HIV-1 envelope glycoprotein of pseudovirus CNE52 (HIV-1); experiment: cell-based or functional assay

Binder | IC50 (neutralization in TZM.bl cells) | IC80 (neutralization in TZM.bl cells)
B3 | 0.42 mg/L | 4.31 mg/L
B4 | 0.389 mg/L | 5.29 mg/L
B5 | 0.265 mg/L | 3.5 mg/L
B6 | 0.22 mg/L | 1.31 mg/L
B7 | 0.206 mg/L | 1.95 mg/L
B8 | 0.21 mg/L | 1.31 mg/L

target: HIV-1 envelope glycoprotein of pseudovirus DU172.17 (HIV-1); experiment: cell-based or functional assay

Binder | IC50 (neutralization in TZM.bl cells) | IC80 (neutralization in TZM.bl cells)
B3 | 1.49 mg/L | 8.04 mg/L
B4 | 2.58 mg/L | 13.9 mg/L
B5 | 1.71 mg/L | 13.6 mg/L
B6 | 1.76 mg/L | 6.27 mg/L
B7 | 1.14 mg/L | 8.76 mg/L
B8 | 0.847 mg/L | 7.3 mg/L

target: HIV-1 envelope glycoprotein of pseudovirus BB1012-11.TC21 (HIV-1); experiment: cell-based or functional assay

Binder | IC50 (neutralization in TZM.bl cells) | IC80 (neutralization in TZM.bl cells)
B3 | 0.031 mg/L | 0.132 mg/L
B4 | 0.035 mg/L | 0.111 mg/L
B5 | 0.027 mg/L | 0.11 mg/L
B6 | 0.029 mg/L | 0.093 mg/L
B7 | 0.021 mg/L | 0.087 mg/L
B8 | 0.033 mg/L | 0.104 mg/L

target: HIV-1 envelope glycoprotein of pseudovirus SC422661.8 (HIV-1); experiment: cell-based or functional assay

Binder | IC50 (neutralization in TZM.bl cells) | IC80 (neutralization in TZM.bl cells)
B3 | 0.201 mg/L | 1.07 mg/L
B4 | 0.362 mg/L | 2.07 mg/L
B5 | 0.148 mg/L | 1.25 mg/L
B6 | 0.285 mg/L | 1.03 mg/L
B7 | 0.233 mg/L | 1.75 mg/L
B8 | 0.243 mg/L | 1.19 mg/L
